Results taken from paper PMC6335420, “The cell cycle regulator GpsB functions as cytosolic adaptor for multiple cell wall enzymes” (Nature Communications, 2019).
Where two headings read alike, the source gives them in different places. Residues, ends and D or L forms follow the SMILES beside them. No end group written: not given here. *: point of attachment. X1 = CN(C)c1ccc2c(-c3ccc(N4C(=O)CC(*)C4=O)cc3C(=O)[O-])c3ccc(=[N+](C)C)cc-3oc2c1; fluorescein‑maleimide = fluorescein attached via maleimide to Cys

Key:
BsGpsB1-68 [1] = molecular target: T1, BsGpsB1-68 (Bacillus subtilis, UniProt P0CI74); type: binding; settings: FP; for reduction in affinity for BsGpsB1-68: relative to wild-type peptide
T1 construct: His6 (N, cleaved yes); made in house; host or cells: E. coli BL21(DE3)
Description: 75 the BsGpsB5-64:BsPBP11-17 complex.

[2] = Circular dichroism of PBP peptides (helicity); type: physicochemical; settings: CD, 222 nm, 4 °C, 20 mM sodium phosphate pH 7.3, 25 μM peptide
Description: CD spectra were recorded on a JASCO J-810 spectropolarimeter with a PTC-4235 Peltier temperature controller using 1 mm path length quartz cuvettes. For full wavelength scans a scan speed of 10 nm^−1min^−1 and a response time of 4 s were used, the final spectra were the average of at least four measurements. BsPBP1_1-32 CD spectra were recorded at 4 °C in a buffer of 20 mM sodium phosphate, pH 7.3 at a peptide concentration of 25 μM. Peptide helical contents were estimated from molar ellipticities at 222 nm using the equation helix = [θ]222 nm / (39,500(1–2.57/n))[78] where n is the number of residues in the peptide. LmPBPA1_1-15 CD spectra were analysed at 40 μM in 20 mM sodium phosphate buffer, pH 7.8, for samples containing 0, 40 and 60% trifluoroethanol (TFE). For samples containing 80% TFE, 5 mM sodium phosphate buffer, pH 7.8, was used. The CD spectra of BsGpsB1-68 proteins were measured at a concentration of 4.5 μM in a buffer of 20 mM sodium phosphate (pH 7.8) 150 mM NaCl. For thermal melt experiments, a response time of 8 s and scan rate of 1 °C^−1min^−1 were used. All thermal melts were reversible as CD spectra recorded before and after the melts in the wavelength range 200–240 nm could be superimposed.

BsGpsB1-68 [3] = molecular target: T2, BsGpsB1-68 (B. subtilis, UniProt P0CI74 1-68); assay: fluorescence polarisation; GpsB protein titrated into TAMRA- or fluorescein-labelled peptide; 10 mM Tris.HCl pH 8.0, 250 mM NaCl, 0.1% reduced Triton X-100; all data fitted to a 1:1 interaction model, Kd ± standard error; settings: both partners purified
T2 construct: GpsB, Bacillus subtilis, residues 1-68 (N-terminal domain); also called N-terminal domain of B. subtilis GpsB; wildtype BsGpsB1-68; source: E. coli BL21(DE3), purified (Ni-NTA, thrombin removal of the His6-tag, SEC); not shown: His6, N-terminal, cleaved
T2 sequence (looked up): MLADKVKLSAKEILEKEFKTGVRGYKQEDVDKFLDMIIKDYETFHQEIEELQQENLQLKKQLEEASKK

Molecule: CSCC[C@H](NC(=O)[C@H](CO)NC(=O)CN)C(=O)N[C@@H](C)C(=O)N[C@@H](CC(=O)O)C(=O)N[C@@H](CCC(N)=O)C(=O)N[C@@H](Cc1ccccc1)C(=O)N[C@@H](CC(N)=O)C(=O)N[C@@H](CO)C(=O)N[C@@H](C)C(=O)N[C@@H](CCC(=O)O)C(=O)N[C@@H](C)C(=O)N[C@@H](CCCNC(=N)N)C(=O)N[C@@H](CCCNC(=N)N)C(=O)N[C@@H](CCCCN)C(=O)N[C@@H](C)C(=O)N[C@@H](CC(N)=O)C(=O)N[C@@H](CSC1CC(=O)N(c2ccc(-c3c4ccc(=[N+](C)C)cc-4oc4cc(N(C)C)ccc34)c(C(=O)[O-])c2)C1=O)C(=O)N[C@@H](CCCCN)C(=O)N[C@@H](CO)C(=O)N[C@@H](CO)C(=O)N1CCC[C@H]1C(=O)N[C@@H](CO)C(=O)N1CCC[C@H]1C(=O)N[C@@H](CCCCN)C(=O)N[C@@H](CCCCN)C(=O)NCC(=O)N[C@@H](CCCCN)C(=O)N[C@@H](CCCCN)C(=O)N[C@@H](CCCNC(=N)N)C(=O)N[C@@H](CCCCN)C(=O)N[C@@H](CCCCN)C(=O)NCC(=O)NCC(=O)O (stereo partly drawn) [TAMRA-BsPBP11-32 Arg8Ala] (H-GSMADQFNSAEARRKANC(X1)KSSPSPKKGKKRKKGG-OH)
- reduction in affinity for BsGpsB1-68 (BsGpsB1-68 [1]): at least 5 fold

Molecule: CSCC[C@H](NC(=O)[C@H](CO)NC(=O)CN)C(=O)N[C@@H](C)C(=O)N[C@@H](CC(=O)O)C(=O)N[C@@H](CCC(N)=O)C(=O)N[C@@H](Cc1ccccc1)C(=O)N[C@@H](CC(N)=O)C(=O)N[C@@H](CO)C(=O)N[C@@H](CCCCN)C(=O)N[C@@H](CCC(=O)O)C(=O)N[C@@H](C)C(=O)N[C@@H](CCCNC(=N)N)C(=O)N[C@@H](CCCNC(=N)N)C(=O)N[C@@H](CCCCN)C(=O)N[C@@H](C)C(=O)N[C@@H](CC(N)=O)C(=O)N[C@@H](CSC1CC(=O)N(c2ccc(-c3c4ccc(=[N+](C)C)cc-4oc4cc(N(C)C)ccc34)c(C(=O)[O-])c2)C1=O)C(=O)N[C@@H](CCCCN)C(=O)N[C@@H](CO)C(=O)N[C@@H](CO)C(=O)N1CCC[C@H]1C(=O)N[C@@H](CO)C(=O)N1CCC[C@H]1C(=O)N[C@@H](CCCCN)C(=O)N[C@@H](CCCCN)C(=O)NCC(=O)N[C@@H](CCCCN)C(=O)N[C@@H](CCCCN)C(=O)N[C@@H](CCCNC(=N)N)C(=O)N[C@@H](CCCCN)C(=O)N[C@@H](CCCCN)C(=O)NCC(=O)NCC(=O)O (stereo partly drawn) [TAMRA-BsPBP11-32 Arg8Lys] (H-GSMADQFNSKEARRKANC(X1)KSSPSPKKGKKRKKGG-OH)
- reduction in affinity for BsGpsB1-68 (BsGpsB1-68 [1]): at least 5 fold

Molecule: CSCC[C@H](NC(=O)[C@H](CO)NC(=O)CN)C(=O)N[C@@H](C)C(=O)N[C@@H](CC(=O)O)C(=O)N[C@@H](CCC(N)=O)C(=O)N[C@@H](Cc1ccccc1)C(=O)N[C@@H](CC(N)=O)C(=O)N[C@@H](CO)C(=O)N[C@@H](CCCNC(=N)N)C(=O)N[C@@H](CCC(=O)O)C(=O)N[C@@H](C)C(=O)N[C@@H](C)C(=O)N[C@@H](CCCNC(=N)N)C(=O)N[C@@H](CCCCN)C(=O)N[C@@H](C)C(=O)N[C@@H](CC(N)=O)C(=O)N[C@@H](CSC1CC(=O)N(c2ccc(-c3c4ccc(=[N+](C)C)cc-4oc4cc(N(C)C)ccc34)c(C(=O)[O-])c2)C1=O)C(=O)N[C@@H](CCCCN)C(=O)N[C@@H](CO)C(=O)N[C@@H](CO)C(=O)N1CCC[C@H]1C(=O)N[C@@H](CO)C(=O)N1CCC[C@H]1C(=O)N[C@@H](CCCCN)C(=O)N[C@@H](CCCCN)C(=O)NCC(=O)N[C@@H](CCCCN)C(=O)N[C@@H](CCCCN)C(=O)N[C@@H](CCCNC(=N)N)C(=O)N[C@@H](CCCCN)C(=O)N[C@@H](CCCCN)C(=O)NCC(=O)NCC(=O)O (stereo partly drawn) [TAMRA-BsPBP11-32 Arg11Ala] (H-GSMADQFNSREAARKANC(X1)KSSPSPKKGKKRKKGG-OH)
- reduction in affinity for BsGpsB1-68 (BsGpsB1-68 [1]): at least 5 fold

Molecule: CSCC[C@H](NC(=O)[C@H](CO)NC(=O)CN)C(=O)N[C@@H](C)C(=O)N[C@@H](CC(=O)O)C(=O)N[C@@H](CCC(N)=O)C(=O)N[C@@H](Cc1ccccc1)C(=O)N[C@@H](CC(N)=O)C(=O)N[C@@H](C)C(=O)N[C@@H](CCCNC(=N)N)C(=O)N[C@@H](CCC(=O)O)C(=O)N[C@@H](C)C(=O)N[C@@H](CCCNC(=N)N)C(=O)N[C@@H](CCCNC(=N)N)C(=O)N[C@@H](CCCCN)C(=O)N[C@@H](C)C(=O)N[C@@H](CC(N)=O)C(=O)N[C@@H](CSC1CC(=O)N(c2ccc(-c3c4ccc(=[N+](C)C)cc-4oc4cc(N(C)C)ccc34)c(C(=O)[O-])c2)C1=O)C(=O)N[C@@H](CCCCN)C(=O)N[C@@H](CO)C(=O)N[C@@H](CO)C(=O)N1CCC[C@H]1C(=O)N[C@@H](CO)C(=O)N1CCC[C@H]1C(=O)N[C@@H](CCCCN)C(=O)N[C@@H](CCCCN)C(=O)NCC(=O)N[C@@H](CCCCN)C(=O)N[C@@H](CCCCN)C(=O)N[C@@H](CCCNC(=N)N)C(=O)N[C@@H](CCCCN)C(=O)N[C@@H](CCCCN)C(=O)NCC(=O)NCC(=O)O (stereo partly drawn) [TAMRA-BsPBP11-32 Ser7Ala] (H-GSMADQFNAREARRKANC(X1)KSSPSPKKGKKRKKGG-OH)
- reduction in affinity for BsGpsB1-68 (BsGpsB1-68 [1]; listed as BsPBP1_1-32^Ser7Ala): at least 6 fold
- reduction in affinity for BsGpsB1-68 (BsGpsB1-68 [1]; listed as BsPBP11-32Ser7Ala): > 5 fold
- helical residues corresponding to helical content [2]: ~ 6 residues
- α-helical content ([2]; average of at least four measurements): 19%

Molecule: CSCC[C@H](NC(=O)[C@H](CO)NC(=O)CN)C(=O)N[C@@H](C)C(=O)N[C@@H](CC(=O)O)C(=O)N[C@@H](CCC(N)=O)C(=O)N[C@@H](Cc1ccccc1)C(=O)N[C@@H](CC(N)=O)C(=O)N[C@@H](CO)C(=O)N[C@@H](CCCNC(=N)N)C(=O)N[C@@H](CCC(=O)O)C(=O)N[C@@H](C)C(=O)N[C@@H](CCCNC(=N)N)C(=O)N[C@@H](CCCNC(=N)N)C(=O)N[C@@H](CCCCN)C(=O)N[C@@H](C)C(=O)N[C@@H](CC(N)=O)C(=O)N[C@@H](CSC1CC(=O)N(c2ccc(-c3c4ccc(=[N+](C)C)cc-4oc4cc(N(C)C)ccc34)c(C(=O)[O-])c2)C1=O)C(=O)N[C@@H](CCCCN)C(=O)N[C@@H](CO)C(=O)N[C@@H](CO)C(=O)N1CCC[C@H]1C(=O)N[C@@H](CO)C(=O)N1CCC[C@H]1C(=O)N[C@@H](CCCCN)C(=O)N[C@@H](CCCCN)C(=O)NCC(=O)N[C@@H](CCCCN)C(=O)N[C@@H](CCCCN)C(=O)N[C@@H](C)C(=O)N[C@@H](CCCCN)C(=O)N[C@@H](CCCCN)C(=O)NCC(=O)NCC(=O)O (stereo partly drawn) [TAMRA-BsPBP11-32 Arg28Ala] (H-GSMADQFNSREARRKANC(X1)KSSPSPKKGKKAKKGG-OH)
- binding to BsGpsB1-68 (in words) (BsGpsB1-68 [1]): no effect on binding

B1: Fluorescein-BsPBP11-32 Ala10Pro (peptide)
peptide: GSMADQFNSREPRRKANSKSSPSPKKGKKRKKC(fluorescein‑maleimide)G
notes: non-native N-terminal residues left by the recombinant method; PBP1 (ponA), Bacillus subtilis, residues 1-32; also called 31-labelled BsPBP1 1-32 A10P
- Kd (BsGpsB1-68 [3]): > 500 µM

B2: TAMRA-BsPBP11-32 Ala10Pro (peptide)
peptide: GSMADQFNSREPRRKANC(TAMRA‑maleimide)KSSPSPKKGKKRKKGG
notes: non-native N-terminal residues left by the recombinant method; PBP1 (ponA), Bacillus subtilis, residues 1-32; also called BsPBP1 1-32 A10P
- Kd (BsGpsB1-68 [3]): > 1000 µM

B3: Fluorescein-BsPBP11-32 Arg8Ala (peptide)
peptide: GSMADQFNSAEARRKANSKSSPSPKKGKKRKKC(fluorescein‑maleimide)G
notes: non-native N-terminal residues left by the recombinant method; PBP1 (ponA), Bacillus subtilis, residues 1-32; also called 31-labelled BsPBP1 1-32 R8A
- Kd (BsGpsB1-68 [3]): > 500 µM

B4: Fluorescein-BsPBP11-32 wildtype (peptide)
peptide: GSMADQFNSREARRKANSKSSPSPKKGKKRKKC(fluorescein‑maleimide)G
notes: non-native N-terminal residues left by the recombinant method; PBP1 (ponA), Bacillus subtilis, residues 1-32, cytoplasmic mini-domain; also called BsPBP1 1-32 labelled with fluorescein at residue 31; 31-labelled peptide
- Kd (BsGpsB1-68 [3]): 100 µM

B5: TAMRA-BsPBP11-32 Arg11Ala (peptide)
peptide: GSMADQFNSREAARKANC(TAMRA‑maleimide)KSSPSPKKGKKRKKGG
notes: non-native N-terminal residues left by the recombinant method; PBP1 (ponA), Bacillus subtilis, residues 1-32; also called BsPBP1 1-32 R11A
- Kd (BsGpsB1-68 [3]): > 600 µM

B6: Fluorescein-BsPBP11-32 Arg28Ala (peptide)
peptide: GSMADQFNSREARRKANSKSSPSPKKGKKAKKC(fluorescein‑maleimide)G
notes: non-native N-terminal residues left by the recombinant method; PBP1 (ponA), Bacillus subtilis, residues 1-32; also called 31-labelled BsPBP1 1-32 R28A
- Kd (BsGpsB1-68 [3]): 130 µM

B7: TAMRA-BsPBP11-32 Arg8Ala (peptide)
peptide: GSMADQFNSAEARRKANC(TAMRA‑maleimide)KSSPSPKKGKKRKKGG
notes: non-native N-terminal residues left by the recombinant method; PBP1 (ponA), Bacillus subtilis, residues 1-32; also called BsPBP1 1-32 R8A
- Kd (BsGpsB1-68 [3]): > 1700 µM

B8: TAMRA-BsPBP11-32 Arg8Lys (peptide)
peptide: GSMADQFNSKEARRKANC(TAMRA‑maleimide)KSSPSPKKGKKRKKGG
notes: non-native N-terminal residues left by the recombinant method; PBP1 (ponA), Bacillus subtilis, residues 1-32; also called BsPBP1 1-32 R8K
- Kd (BsGpsB1-68 [3]): > 2000 µM

B9: TAMRA-BsPBP11-32 Ser7Ala (peptide)
peptide: GSMADQFNAREARRKANC(TAMRA‑maleimide)KSSPSPKKGKKRKKGG
notes: non-native N-terminal residues left by the recombinant method; PBP1 (ponA), Bacillus subtilis, residues 1-32; also called BsPBP1 1-32 S7A
- Kd (BsGpsB1-68 [3]): > 700 µM

B10: TAMRA-BsPBP11-32 Arg28Ala (peptide)
peptide: GSMADQFNSREARRKANC(TAMRA‑maleimide)KSSPSPKKGKKAKKGG
notes: non-native N-terminal residues left by the recombinant method; PBP1 (ponA), Bacillus subtilis, residues 1-32; also called BsPBP1 1-32 R28A
- Kd (BsGpsB1-68 [3]): 90 µM
